Target: GST-tagged B′γ1 regulatory subunit (UniProt Q13362)
Test: pull-down; 10 μg GST-tagged B′γ1 immobilised; titrated concentrations of phosphorylated or non-phosphorylated Cyk4 (1–177)

concentration at half maximum binding: 2.5 to 5 µM | lowest concentration at which the interaction is detected: 0.6 µM
Substance: pCyk4 (1–177), Plk1-phosphorylated (from UniProt Q9H0H5 1-177) (domain or fragment)

— paper PMC5586252, “PP2A-B′ holoenzyme substrate recognition, regulation and role in cytokinesis” (Cell Discovery, 2017)
